From the RNAGym collection of RNA variant scans (doi:10.1073/pnas.2313332121)

B1: TPR t1 (parent)
chain: GACCAAUCUGCCCUCAGAGCUCGAGAACAUCUUCGGAUGCAGAGGAGGCAGGCUUCGGUGGCGCGAUAGCGCCAACGUCCUCAACCUCCAAUGCAUCCCACCACAUGAUGAUGCCUGAAGAGCCUUGGUUUUUUG

Variants of: B1
Assay: polymerase ribozyme fitness, log enrichment relative to wild type (log ratio); higher = more active; in vitro selection for triplet polymerase activity
Summary of the method: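 The heterodimeric triplet polymerase ribozyme's subunits were each mutagenized into PCR-built libraries and transcribed. Every library was selected once, in triplicate, by annealing with a biotinylated primer, the partner subunit and triplets, incubating frozen at −7 °C, gel-excising extended constructs, capturing on streptavidin beads and running RT-PCR. Input and output libraries were Illumina-sequenced, with genotypes kept only at ≥10 input reads and ≥1 read per output. Fitness, from inverse-variance-weighted replicate averages, is the base-2 logarithm of genotype enrichment over wild-type enrichment.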

| Variant | polymerase ribozyme fitness (log ratio) |
| --- | --- |
| GACCAAUCUGCCCUCAGAGCUCGAGAACAUCUUCGGAUGCAGAGGGGGCAGGCUUCGGUGGCGCGAUAGCGCCAACGUCCUCAACGUCCAAUGCAUCCCACCACAUGAUGAUGCCUGAAGAGCCUUGGUUUUUUG [A46G C86G] | -1.96 |
| GACCAAUCUGCCCUCAGAGCUCGAGAACAUCUUCGGAUGCAGAGGUGGCAGGAUUCGGUGGCGCGAUAGCGCCAACGUCCUCAACCUCCAAUGCAUCCCACCACAUGAUGAUGCCUGAAGAGCCUUGGUUUUUUG [A46U C53A] | -0.885 |
| GACCAAUCUGCCCUCAGAGCUCGAGAACAUCUUCGGAUGCAGAGGGGGCAGGCUUCGCUGGCGCGAUAGCGCCAACGUCCUCAACCUCCAAUGCAUCCUACCACAUGAUGAUGGCUGAAGAGCCUUGGUUUUUUG [A46G G58C C99U C114G] | -6.59 |
| GACCAAUCUGCCCUCAGAGCUCGAGAACAUCUUCGGAUGCAGAGGUGGCAGGCUUCGGUGGCGCGAUAGCGCCAACGUCCUCAACCUCCACUGCAUCCCACCACAUGAUGAUGCGUGAAGAGCCUUGGUUUUUUG [A46U A91C C115G] | -3.55 |
| GACCAAUCUGCCCUCAGAGCUCGAGAACAUCUUCGGAUGCAGAGGGGGCAGGCUUAGGUGGCGCGAUAGCGCCAACGUCCUCAACCUCCAAUGCAUCCCACCACAUGAUGAUGCCUGAAGAGCCUUGGUUUUGUG [A46G C56A U133G] | -0.786 |
| GACCAAUCUGCCCUCAGAGCUCGAGAACAUCUUCGGAUGCAGAGGGGGCAGGCUUCGGUGGCGCGAUAGCGCCAACGUCCUCAACCUCCAAUGCAUCCCACCACAUGAUUAUGCCAGAAGAGCCUUGGUUUUUUG [A46G G110U U116A] | -4.29 |
| GACCAAUCUGCCCUCAGAGCUCGAGAACAUCUUCGGAUGCAGAGGUGGCAGGCUUAGGUGGCGCGAUAGCGGCAACGUCCUCAACCUCCAAUACAUCCCACCACAUGAUGAUGCCUGAAAAGUCUUGGUUUUUUG [A46U C56A C72G G93A G120A C123U] | -4.15 |
| GACCAAUCUGCCCUCAGAGCUCGAGAACAUCUUCGGAUGCAGAGGUGGCAGGCUUCGGUGGAGCGAUAGCGCCAACGUCCUCAACCUCCAAUGCAUCCCACCACAUGAUGAUGCCUGAAGAGCCUUGGUUUUUUG [A46U C62A] | -2.13 |
| GACCAAUCUGCCCUCAGAGCUCGAGAACAUCUUCGGAUGCAGAGGUGGCAGGCUUUGGUGGCGCGAUAGCGCCAACGUCCUCAACCUCCAAUGCAUCCCACCACAUGAUGAUGCCUGAAGAGCCUUGGUUUUUUG [A46U C56U] | -0.82 |
| GACCAAUCUGCCCUCAGAGCUCGAGAACAUCUUCGGAUGCAGAGGUGGCAGGCUUCGGUGGCGCGAUAGCGCCAACGUCCUCAACCUCCUAUGCAUCCCACCACUUGAUGAUGCUUGAAGAGCUUUGGUUUUUUG [A46U A90U A105U C115U C124U] | -5.04 |
| GACCAAUCUGCCCUCAGAGCUCGAGAACAUCUUCGGAUGCAGAGGUGGCAGGCUUCGGUGGCGCGAUAGCGCCCACGUCCUCAACCUCCAAUGCAACCCACCACAUGAUGAUGCCUGAAGAGCCUUGGUUUUUUG [A46U A74C U96A] | -1.66 |
| GACCAAUCUGCCCUCAGAGCUCGAGAACAUCUUCGGAUGCAGAGGGGGCAGGCUUCGGUGGCGCGAUAGCGCCAACGUCCUCAACCUCCAAUGCAUCCCACCACAUGAUGAUACCUGAAUAGCCUUGGUUUUAUG [A46G G113A G120U U133A] | -3.17 |
| GACCAAUCUGCCCUCAGAGCUCGAGAACAUCUUCGGAUGCAGAGGUGGCAGGCUUCGGUGGCGCGAUAGCGCCCACGUCCUCAACCUGCAAUGCAUCCCACCACAUGAUGAUGCCUGAAGAGCCUUGGUUUUUUG [A46U A74C C88G] | -4.4 |
| GACCAAUCUGCCCUCAGAGCUCGAGAACAUCUUCGGAUGCAGAGGGGGCAGGUUUCGGUGGCGCGAUAGCGCCAACGUCCUCAACCUCCAAUGCAUCCCACCACAUGAUGAUGCCUGAAGAGCCUUGGUUUUUUG [A46G C53U] | -1.01 |
| GACCAAUCUGCCCUCAGAGCUCGAGAACAUCUUCGGAUGCAGAGGUGGCAGGAUUCGGUGGCGCGAUAGCGCCAACGUCCUCAACCUCCAAUGCAUCCCACCACAUGAUGUUGCCUGAAGAGCCUUGGUUUUUUG [A46U C53A A111U] | -4.45 |
| GACCAAUCUGCCCUCAGAGCUCGAGAACAUCUUCGGAUGCAGAGGGGGCAGGCUUCGGUGGCGCGAUAGCGCCAACGUCCUCAACCUCCAAUGCAUCCCACCACAUGAUGAUGCCUGAACAGCCUUGCUUUUUUG [A46G G120C G128C] | -2.6 |
| GACCAAUCUGCCCUCAGAGCUCGAGAACAUCUUCGGAUGCAGAGGGGGCAGGCUUCGGUGGCCCGAUAGCGCCAACGUCCUCAGCCUUCAAUGCAUCCCACCACAUGAUGAUGCCUGAAGAGCUUUGGUUUUUUG [A46G G63C A84G C88U C124U] | -0.641 |
| GACCAAUCUGCCCUCAGAGCUCGAGAACAUCUUCGGAUGCAGAGGGGGCAGGCUUCGGUGACGCGAUAGCGCCAACGUCUUCAACCUCCAAUGUAUCCCACCACAUGAUGAUGCCUGAAGAGCCUUGGUUUUUUG [A46G G61A C80U C94U] | -2.56 |
| GACCAAUCUGCCCUCAGAGCUCGAGAACAUCUUCGGAUGCAGAGGUGGCAGGCUUCGGUGGCGCGAUAGCGCCAACGUCCUCAACCUCCAAUGCAUCCCACCACCUGAUGAUGCCUGAGGAGCAUUGGUUUUUUG [A46U A105C A119G C124A] | -1.39 |
| GACCAAUCUGCCCUCAGAGCUCGAGAACAUCUUCGGAUGCAGAGGUGGCAGGCUUCGGUGGCGCGAUAGCGCCAACGUCCUCAACCUCCAAUGCAUCCCUCCACAUGAUGAUGCCUGAAGAGCCUUGGUUUUUUG [A46U A100U] | -1.69 |
| GACCAAUCUGCCCUCAGAGCUCGAGAACAUCUUCGGAUGCAGAGGGGGCAGGCUUCGGUGGCGCGAUAGCGCCAACGUCCUCAACCUUCAAUGCAUACCACCACAUGAUGAUGCCUGAAGAGCCUUGGUUUUUUG [A46G C88U C97A] | -5.17 |

| Variant | polymerase ribozyme fitness (log ratio) |
| --- | --- |
| GACCAAUCUGCCCUCAGAGCUCGAGAACAUCUUCGGAUGCAGAGGUGGCAGGCUUAGGUGGCGCGAUAGCGCCAACGUCCUCAACCUCCAAUACAUCCCACCACAUGAUGAUGCCUGAAAAGUCUUGGUUUUUUG [A46U C56A G93A G120A C123U] | -1.16 |
| GACCAAUCUGCCCUCAGAGCUCGAGAACAUCUUCGGAUGCAGAGGGGGCAGGCUUCGGUGGCGCGAUAGCGCCAACGUCCUCAACCUCCAAUGCAUCCCACCACAUGAUGAUGCCUCAAGAGCCUUGGUUUUUUG [A46G G117C] | -3.96 |
| GACCAAUCUGCCCUCAGAGCUCGAGAACAUCUUCGGAUGCAGAGGGGGCAGGCUUCGGUGGCGCGAUAGCGCCAACCUCCUCAACCUCCAAUGCAUUCCACCACAUGAUGAUGCCUGAAGAGCGUUGGUUUUUUG [A46G G77C C97U C124G] | 0.934 |
| GACCAAUCUGCCCUCAGAGCUCGAGAACAUCUUCGGAUGCAGAGGGGGCAGGCUUCGGUGACGCGAUAGCGCCAACGUCCUCAACCUCCAAUGCAUCCCACCACAUGAUGAUGCCUGAAGAGCCUUGGUUUUUUG [A46G G61A] | 0.179 |
| GACCAAUCUGCCCUCAGAGCUCGAGAACAUCUUCGGAUGCAGAGGUGGCAGGCUUCGGUGGCGCGAUAGCGCCUACGUCCUCAACCUCCAAUGCAUCCCACCACAUGAUGAUACCUGAAGAGCCUUGGUUUUUUG [A46U A74U G113A] | -1.99 |
| GACCAAUCUGCCCUCAGAGCUCGAGAACAUCUUCGGAUGCAGAGGUGGCAGGCUUCGGUGGCGCGAUAGCGCCAACGUCCUCAACCUCCAGUGCAUCCCACCACAUGAUGAUGCCUGAAGAGCCUUGGUUUUUUG [A46U A91G] | -1.96 |
| GACCAAUCUGCCCUCAGAGCUCGAGAACAUCUUCGGAUGCAGAGGGGGCAGGCUUAGGUGGCGCGAUAGCGCCAACGUCCUCAACCUCCAAUGCAUCCCAGCACAUGAUGAUGCCUGAAGAGCCUCGGUUUUUUG [A46G C56A C101G U126C] | -2.14 |
| GACCAAUCUGCCCUCAGAGCUCGAGAACAUCUUCGGAUGCAGAGGGGGCAGGCUUCGGUGGCGCGAUAGCGCCAACGUCCUCAACCUCCAAUGCAUCCCACCACAUGAUGAUGCCUGAAGAGCCUUAGUUUUUUG [A46G G127A] | -1.96 |
| GACCAAUCUGCCCUCAGAGCUCGAGAACAUCUUCGGAUGCAGAGGUGGCAGGCUUCGGUGGCGCGAUAGCGCCAACGUCCUCAACCUCCAAUGCAUCCCACCACAUGAUGAUGCCUGAAGAGCCUUGGUUUUUUG [A46U] | -1.11 |
| GACCAAUCUGCCCUCAGAGCUCGAGAACAUCUUCGGAUGCAGAGGGGGCAGGUUUCGGUGGCGCGAUAGCGCCAACGUCCUCAACCUCUAAUGCAUCCCACCACAUGAUGAUGCCUGAAGAGCCUUGAUUUUUUG [A46G C53U C89U G128A] | -3.9 |
| GACCAAUCUGCCCUCAGAGCUCGAGAACAUCUUCGGAUGCAGAGGGGGCAGGCUUCGGUGGCGCGAUAGCGCCAACGUACUCAACCUCCAAUGCAUCCCACCACAUGAUGAUGCCUGAAGAGCCUUGGUUUUUUG [A46G C79A] | -1.06 |
| GACCAAUCUGCCCUCAGAGCUCGAGAACAUCUUCGGAUGCAGAGGGGGCAGGCUUCGGUGGCGCGAUAGCGCCAACGUCCUCAAGCUCCAAUGCAUCCCACCACAUGAUGAUGCCUGAAGAGCCUUGGUUUUUUG [A46G C85G] | -2.68 |
| GACCAAUCUGCCCUCAGAGCUCGAGAACAUCUUCGGAUGCAGAGGGGGCAGGCUUCGGUGCCGCGAUAUCGCCAACGUCCUCAACCUCCAAUGCAUACCACCACAUGAUGUUGCCUGAAGAGCCUUGGUUUUUUG [A46G G61C G69U C97A A111U] | -5.77 |
| GACCAAUCUGCCCUCAGAGCUCGAGAACAUCUUCGGAUGCAGAGGGGGCAGGCGUCGGUGGGGCGAUAGCGCCAACGCCCUCAACCUCCAAUGCAUCCCACCACAUGAUGAUGCCUGAAGAGUCUUGGUUUUUUG [A46G U54G C62G U78C C123U] | -4.11 |
| GACCAAUCUGCCCUCAGAGCUCGAGAACAUCUUCGGAUGCAGAGGGGGCAUGCUUCGGUGGCGCGAUAGCGCCAACGUCCUCAACCUCCAAUGCAUCCCACCACAUGAUGAUGCCUGAAGAGCCUUGGUUUUUUG [A46G G51U] | -2.98 |
| GACCAAUCUGCCCUCAGAGCUCGAGAACAUCUUCGGAUGCAGAGGUGGCAGGCUUCGGUGGCGCGAUAGCGCCAACGUCCUCACCCUCCAAUGCAUCCCACCACAUGAUGAUGCCUGAAGAGCCUUGGUUUUUUG [A46U A84C] | -1.04 |
| GACCAAUCUGCCCUCAGAGCUCGAGAACAUCUUCGGAUGCAGAGGUGGCAGGCUUCGGUGGCGCGAUAGCGCCAACGUCCUCAUCCUCCAAUGCAUCCCACCACAUGAUGAUGCCUGAAGAGCCUUGGUUUUUUG [A46U A84U] | -1.28 |
| GACCAAUCUGCCCUCAGAGCUCGAGAACAUCUUCGGAUGCAGAGGUGGCAGGCUUCGGUGGCGCGAUAGCGCCUACGUCCUCAACCUCCAGUGCAUCCCACCACAUGAUGAUGCCUGAAGAGGCUUGGUUUUUUG [A46U A74U A91G C123G] | -3.09 |
| GACCAAUCUGCCCUCAGAGCUCGAGAACAUCUUCGGAUGCAGAGGUGGCAGGCUUGGGUGGCGCGAUAGCGCCAACGCCCUCAACCUCCAAUCCAUCCCACCACAUGAUGAUGCCUGAAUAGCCUUGGUUUUUUG [A46U C56G U78C G93C G120U] | -3.59 |
| GACCAAUCUGCCCUCAGAGCUCGAGAACAUCUUCGGAUGCAGAGGGGGCAGGCUUCGGUGGCGCGAUAGGGCCAACGUCCUCAACCUCCAAUGUAUCCCACCACAUGAUGAUGCCUGAAGAGCCUUGGUUUUUUG [A46G C70G C94U] | -3.9 |
| GACCAAUCUGCCCUCAGAGCUCGAGAACAUCUUCGGAUGCAGAGGGGGCAGGCUUCGGUGGCCCGAUAGCGCCAACGUCCUCAACCUCCAAUGCAUCCCACCACAUGAUUAUGCCAGAAGAGCCUUGGUCUUUUG [A46G G63C G110U U116A U130C] | -4.2 |
